From patent publication US20230203156A1 (published 2023)
Where two headings read alike, the source gives them in different places. Each block holds one binder with its values, some of them ahead of it.

Key:
[1] = target: cynomolgus MDR1 (Macaca fascicularis); test: FACS binding, 293T-cB1 cells
[2] = target: T1, human MDR1 (multidrug resistance protein 1) (UniProt P08183 1-1280); test: FACS binding, 293T-hB1 cells
human CD47 [3] = target: T2, human CD47 (human, UniProt Q08722 19-323); test: FACS binding, C6 cells expressing human CD47
human CD47 [4] = target: T2, human CD47; test: cell binding (flow cytometry, C6 cells)
human CD47 [5] = target: T2, human CD47; test: FACS binding, C6-hKT14 cells
cynomolgus CD47 = target: T3, cynomolgus CD47 (cynomolgus, UniProt A0A5F8AK49 19-323); test: FACS binding, C6-cKT14 cells
T3 chain: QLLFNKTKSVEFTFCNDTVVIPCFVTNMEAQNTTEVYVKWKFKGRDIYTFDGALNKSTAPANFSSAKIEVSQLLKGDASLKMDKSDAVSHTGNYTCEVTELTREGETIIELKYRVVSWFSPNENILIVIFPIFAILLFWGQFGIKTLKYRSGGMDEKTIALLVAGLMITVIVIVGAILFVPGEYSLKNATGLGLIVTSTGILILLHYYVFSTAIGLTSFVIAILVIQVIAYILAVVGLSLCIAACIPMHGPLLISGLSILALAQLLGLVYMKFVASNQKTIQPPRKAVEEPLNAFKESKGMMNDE

[6] = target: T1, human MDR1 (multidrug resistance …); test: FACS binding, 293T-hB1 cells; remark: listed apart in the source
[7] = target: cynomolgus MDR1 (Macaca fascicularis); test: FACS binding, 293T-cB1 cells; remark: listed apart in the source
[8] = target: T1, human MDR1 (multidrug resistance …); test: FACS binding, 293T cells expressing human MDR1

cynomolgus MDR1 (Macaca fascicularis), sequence (chain, as listed by the source): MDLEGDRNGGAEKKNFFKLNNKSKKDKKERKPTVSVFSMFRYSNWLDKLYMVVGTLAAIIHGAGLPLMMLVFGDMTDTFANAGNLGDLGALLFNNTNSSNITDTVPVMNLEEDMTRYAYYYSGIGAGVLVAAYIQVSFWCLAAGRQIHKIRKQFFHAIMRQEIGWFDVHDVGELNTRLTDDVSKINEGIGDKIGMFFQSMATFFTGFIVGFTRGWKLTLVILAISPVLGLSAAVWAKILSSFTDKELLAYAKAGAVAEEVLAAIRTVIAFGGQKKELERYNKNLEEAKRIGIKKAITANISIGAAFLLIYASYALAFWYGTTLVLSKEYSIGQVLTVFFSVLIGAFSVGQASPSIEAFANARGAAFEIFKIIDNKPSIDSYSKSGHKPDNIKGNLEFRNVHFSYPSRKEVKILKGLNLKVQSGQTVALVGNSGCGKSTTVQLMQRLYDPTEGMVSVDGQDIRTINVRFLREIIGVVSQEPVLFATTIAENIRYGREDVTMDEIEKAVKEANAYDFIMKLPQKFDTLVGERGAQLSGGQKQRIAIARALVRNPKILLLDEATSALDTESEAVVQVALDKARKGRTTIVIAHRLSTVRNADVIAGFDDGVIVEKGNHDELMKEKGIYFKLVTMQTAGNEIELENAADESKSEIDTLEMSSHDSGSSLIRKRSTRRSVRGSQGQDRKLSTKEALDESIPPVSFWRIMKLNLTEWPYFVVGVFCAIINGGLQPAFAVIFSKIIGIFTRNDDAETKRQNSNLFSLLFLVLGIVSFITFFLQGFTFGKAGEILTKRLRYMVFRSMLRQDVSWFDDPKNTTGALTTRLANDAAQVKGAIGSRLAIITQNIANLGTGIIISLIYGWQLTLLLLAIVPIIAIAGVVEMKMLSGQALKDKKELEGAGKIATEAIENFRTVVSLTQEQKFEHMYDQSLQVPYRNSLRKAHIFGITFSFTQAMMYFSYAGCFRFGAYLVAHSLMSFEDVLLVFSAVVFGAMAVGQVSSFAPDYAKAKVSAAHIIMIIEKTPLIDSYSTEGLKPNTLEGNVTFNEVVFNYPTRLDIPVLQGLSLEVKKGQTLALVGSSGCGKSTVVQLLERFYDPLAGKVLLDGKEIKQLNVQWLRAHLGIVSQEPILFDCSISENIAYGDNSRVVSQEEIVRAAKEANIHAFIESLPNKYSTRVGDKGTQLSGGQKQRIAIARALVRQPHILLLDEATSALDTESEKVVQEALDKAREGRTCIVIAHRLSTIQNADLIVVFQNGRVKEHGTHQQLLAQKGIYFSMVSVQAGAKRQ

Kd [1]: 114 nM | Kd [2]: 50 nM
B1: B1.261.huH2(VH3)-huL1 (antibody, V domains shown)
VH: EVQLVESGGGLIQPGGSLRLSCAVSGFSLTSYGVHWVRQPPGKGLEWLVVIWSDGSTTYNSALKSRLTISKDNSKNTVYLQMNSLRAEDTAVYYCARHGRWLLQRGGAMDYWGQGTMVTVSS
VL: DVQMTQSPSSLSASVGDRVTITCRASQNVGSYIAWYQQKPGKSPKALIYSASYRSSGVPSRFSGSGAGTDFTLTISSLQPEDFATYFCQQYNSYPLTFGGGTKLEIK

Kd [1]: 371 nM | Kd [2]: 188 nM
B2: B1.261 (antibody, V domains shown)
VH: QVQLKESGPGLVAPSQSLSITCTVSGFSLTSYGVHWVRQPPGKGLEWLVVIWSDGSTTYNSALKSRLSISKDNSKSQVFLKMNSLQIDDTAMYYCARHGRWLLQRGGAMDYWGQGTSVTVSS
VL: DVVMTQAPKFMSTSVGDRVSVTCRASQNVGSYIAWYQQKLGQSPKALIYSASYRCSGVPDRFTGSGAGTDFTLTIRNVQSEDLAEYFCQQYNSYPLTFGGGTKLEIK

EC50 (human CD47 [3]): 1.4 nM
B3: KT14.5F9hu scFv-B1.28.hu13 (bispecific antibody)
scFv: not shown
heavy: EVQLVESGGGLVKPGGSLRLSCAASGFTFGLYTMSWVRQAPGKGLEWVATISSGGSNTYYPDSVKGRFTISRDNAKNSLYLQMNSLRAEDTAVYYCARYYRYDAWFAYWGQGTLVTVSSASTKGPSVFPLAPSSKSTSGGTAALGCLVKDYFPEPVTVSWNSGALTSGVHTFPAVLQSSGLYSLSSVVTVPSSSLGTQTYICNVNHKPSNTKVDKRVEPKSCDKTHTCPPCPAPELLGGPSVFLFPPKPKDTLMISRTPEVTCVVVDVSHEDPEVKFNWYVDGVEVHNAKTKPREEQYNSTYRVVSVLTVLHQDWLNGKEYKCKVSNKALPAPIEKTISKAKGQPREPQVCTLPPSREEMTKNQVSLSCAVKGFYPSDIAVEWESNGQPENNYKTTPPVLDSDGSFFLVSKLTVDKSRWQQGNVFSCSVMHEALHNHYTQKSLSLSPGK
light: EVVLTQSPATLSLSPGERATLSCRSSQNIVHSTGNTYLDWYQQKPGQSPRLLIYKVSNRFSGVPARFSGSGSGTDFTLTISSLEPEDFAVYYCFQGSHIPRTFGGGTKLEIKRTVAAPSVFIFPPSDEQLKSGTASVVCLLNNFYPREAKVQWKVDNALQSGNSQESVTEQDSKDSTYSLSSTLTLSKADYEKHKVYACEVTHQGLSSPVTKSFNRGEC

EC50 (human CD47 [3]): 1.5 nM
B4: KT14.B6H12hu scFv-B1.28.hu13 (bispecific antibody)
scFv: not shown
heavy: EVQLVESGGGLVKPGGSLRLSCAASGFTFGLYTMSWVRQAPGKGLEWVATISSGGSNTYYPDSVKGRFTISRDNAKNSLYLQMNSLRAEDTAVYYCARYYRYDAWFAYWGQGTLVTVSSASTKGPSVFPLAPSSKSTSGGTAALGCLVKDYFPEPVTVSWNSGALTSGVHTFPAVLQSSGLYSLSSVVTVPSSSLGTQTYICNVNHKPSNTKVDKRVEPKSCDKTHTCPPCPAPELLGGPSVFLFPPKPKDTLMISRTPEVTCVVVDVSHEDPEVKFNWYVDGVEVHNAKTKPREEQYNSTYRVVSVLTVLHQDWLNGKEYKCKVSNKALPAPIEKTISKAKGQPREPQVCTLPPSREEMTKNQVSLSCAVKGFYPSDIAVEWESNGQPENNYKTTPPVLDSDGSFFLVSKLTVDKSRWQQGNVFSCSVMHEALHNHYTQKSLSLSPGK
light: EVVLTQSPATLSLSPGERATLSCRSSQNIVHSTGNTYLDWYQQKPGQSPRLLIYKVSNRFSGVPARFSGSGSGTDFTLTISSLEPEDFAVYYCFQGSHIPRTFGGGTKLEIKRTVAAPSVFIFPPSDEQLKSGTASVVCLLNNFYPREAKVQWKVDNALQSGNSQESVTEQDSKDSTYSLSSTLTLSKADYEKHKVYACEVTHQGLSSPVTKSFNRGEC

EC50 (human CD47 [4]): 26 nM
B5: KT14.B6H12hu scFv-B1.261.hu1 (bispecific antibody)
scFv: not shown
heavy: EVQLQESGPGLVKPSETLSLTCTVSGFSLTSYGVHWVRQPPGKGLEWLVVIWSDGSTTYNSALKSRLTISKDNSKNQVSLKLSSVTAADTAVYYCARHGRWLLQRGGAMDYWGQGTMVTVSSASTKGPSVFPLAPSSKSTSGGTAALGCLVKDYFPEPVTVSWNSGALTSGVHTFPAVLQSSGLYSLSSVVTVPSSSLGTQTYICNVNHKPSNTKVDKRVEPKSCDKTHTCPPCPAPELLGGPSVFLFPPKPKDTLMISRTPEVTCVVVDVSHEDPEVKFNWYVDGVEVHNAKTKPREEQYNSTYRVVSVLTVLHQDWLNGKEYKCKVSNKALPAPIEKTISKAKGQPREPQVCTLPPSREEMTKNQVSLSCAVKGFYPSDIAVEWESNGQPENNYKTTPPVLDSDGSFFLVSKLTVDKSRWQQGNVFSCSVMHEALHNHYTQKSLSLSPGK
light: DVQMTQSPSSLSASVGDRVTITCRASQNVGSYIAWYQQKPGKSPKALIYSASYRSSGVPSRFSGSGAGTDFTLTISSLQPEDFATYFCQQYNSYPLTFGGGTKLEIKRTVAAPSVFIFPPSDEQLKSGTASVVCLLNNFYPREAKVQWKVDNALQSGNSQESVTEQDSKDSTYSLSSTLTLSKADYEKHKVYACEVTHQGLSSPVTKSFNRGEC

EC50 (human CD47 [5]): 40 nM | EC50 (cynomolgus CD47): 83 nM
B6: B1.28DD/KT14KK/28 (antibody)
chain 1: EVKLVESGGGLVKPGGSLKLSCAASGFTFGLYTMSWVRQTPERRLEWVATISSGGSNTYYPDSVKGRFTISRDNAKNNLFLQMNSLRSEDTALYYCARYYRYDAWFAYWGQGTLVTVSS
chain 2: QVQLVQSGAEVKKPGASVKVSCKASGYTFTNYNMHWVRQAPGQRLEWMGTIYPGNDDTSYNQKFKDRVTITADTSASTAYMELSSLRSEDTAVYYCARGGYRAMDYWGQGTLVTVSS
chain 3: DVLLTQTPLSLPVSLGDQASISCRSSQNIVHSTGNTYLDWYLQKPGQSPKLLIYKVSNRFSGVPDRFSGSGSGTDFTLKISRVEAEDLGVYFCFQGSHIPRTFGGGTKLEIK

Kd [6]: 17 nM | Kd [7]: 97 nM | EC50 [8]: 4.8 nM
B7: B1.28 (antibody, V domains shown)
VH: EVKLVESGGGLVKPGGSLKLSCAASGFTFGLYTMSWVRQTPERRLEWVATISSGGSNTYYPDSVKGRFTISRDNAKNNLFLQMNSLRSEDTALYYCARYYRYDAWFAYWGQGTLVTVSS
VL: DVLLTQTPLSLPVSLGDQASISCRSSQNIVHSTGNTYLDWYLQKPGQSPKLLIYKVSNRFSGVPDRFSGSGSGTDFTLKISRVEAEDLGVYFCFQGSHIPRTFGGGTKLEIK
